Test results published in patent publication US20100286042A1.

Target: FGFR2b
Experiment: cell-based or functional assay

Substance: basic fibroblast growth factor (FGF2) (from UniProt P09038 143-288) (ligand)
- cell proliferation promoting activity on BaF3 cells forced to express the receptor (in the presence of heparin), relative to FGF1 (fold of the activity of FGF1): 0.001
